Laboratory results as given in paper PMC8082267, “Inhibition of the PP2A activity by the histone chaperone ANP32B is long-range allosterically regulated by respiratory cytochrome c” (Redox Biology, 2021).

Tests used:
Details in all cases: both partners purified
[1] = biological target: T1, full-length ANP32B (ANP32B_(1-251)), recombinant (human, UniProt Q92688-1 1-251); test: ITC; high ionic strength: reduced Cc injected into ANP32B_(1-251), 10 mM sodium phosphate pH 7.4 with 150 mM NaCl
T1 construct: cloned by PCR from cDNA (Geneservice, UK) into pET28a(+); source: E. coli BL21 (DE3) pLysS, purified (Ni-NTA, Superdex 200)

[2] = biological target: T1, full-length ANP32B (ANP32B_(1-251)), …; test: ITC; low ionic strength: 400 μM reduced Cc injected into ANP32B construct in the cell (50 μM ANP32B_(1-251), 40 μM ANP32B_(1-231), 50 μM ANP32B_(1-161)), 10 mM sodium phosphate pH 7.4; models with one or two independent binding sites
[3] = biological target: T2, ANP32B construct lacking its Nuclear Localization Signal sequence (ANP32B_(1-231)) (human, UniProt Q92688-1 1-231); test: as above
T2 construct: lacks the 20-amino acid C-end stretch; source: E. coli BL21 (DE3) pLysS, purified (Ni-NTA, Superdex 200)

[4] = biological target: T3, full-length ANP32B (ANP32B1-251) (human, UniProt Q92688-1 1-251); test: ITC; reduced Cc (400 uM stock) injected into ANP32B1-251 (50 uM) in the cell; 10 mM sodium phosphate pH 7.4 with 150 mM NaCl; single binding site
T3 construct: also called Acidic leucine-rich Nuclear Phosphoprotein 32 family member B; source: E. coli BL21 (DE3) pLysS, pET28a(+), purified (Ni-NTA, Superdex 200)
T3 sequence (Q92688 whole entry): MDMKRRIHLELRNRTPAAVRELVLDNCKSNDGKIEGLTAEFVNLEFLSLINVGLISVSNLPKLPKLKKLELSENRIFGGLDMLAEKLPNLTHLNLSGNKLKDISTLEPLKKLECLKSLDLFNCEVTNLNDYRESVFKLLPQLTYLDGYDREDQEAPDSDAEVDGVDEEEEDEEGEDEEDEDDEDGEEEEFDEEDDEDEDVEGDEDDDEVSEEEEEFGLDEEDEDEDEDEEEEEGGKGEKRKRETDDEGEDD

T2 sequence (Q92688 1-231): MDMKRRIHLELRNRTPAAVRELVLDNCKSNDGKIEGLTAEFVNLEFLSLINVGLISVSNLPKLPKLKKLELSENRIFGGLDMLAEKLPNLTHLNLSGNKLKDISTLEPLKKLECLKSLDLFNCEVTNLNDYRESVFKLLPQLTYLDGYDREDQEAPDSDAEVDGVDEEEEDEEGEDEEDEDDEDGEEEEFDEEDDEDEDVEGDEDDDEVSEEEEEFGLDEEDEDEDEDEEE
T1 sequence (Q92688 whole entry): as the sequence (Q92688 whole entry) above
Sequence of cytochrome c (P99999 2-105): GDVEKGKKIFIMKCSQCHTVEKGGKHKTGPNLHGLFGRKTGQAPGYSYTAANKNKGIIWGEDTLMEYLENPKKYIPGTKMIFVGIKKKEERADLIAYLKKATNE

stoichiometry N [1]	dH, higher-affinity site (two independent sites) [2]	dH, lower-affinity site (two independent sites) [2]	Kd [3]	dH [3]	stoichiometry N [3]	Kd [4]	stoichiometry N [4]	Binder
1	-10.7 kcal/mol	29.5 kcal/mol	8 µM	-3.6 kcal/mol	1.09			recombinant respiratory cytochrome c (natural protein, heme group (hemeprotein), reduced with sodium ascorbate; 15N-labelled in the HSQC titrations, cytochrome c, human; also called Cc; the hemeprotein) not shown
						9.1 µM	1.2	cytochrome c (natural protein, heme group; kept in the reduced redox state; 15N-labelled in the NMR titrations, cytochrome c, human (the anti-human Cc serum was raised against this recombinant Cc); NMR assignment BMRB 5406 and structure PDB 1J3S are used for it; also called Cc; respiratory cytochrome c; source: E. coli BL21 (DE3), pBTR1 vector also encoding yeast heme lyase, purified (carboxymethyl cellulose ion exchange)) not shown
